Assay results: patent publication US20200040103A1

Molecular target: recombinant human KLK5 (human) (UniProt Q9Y337)
Assay: cell-based or functional assay

Chain of recombinant human KLK5 (human) (Q9Y337 67-293): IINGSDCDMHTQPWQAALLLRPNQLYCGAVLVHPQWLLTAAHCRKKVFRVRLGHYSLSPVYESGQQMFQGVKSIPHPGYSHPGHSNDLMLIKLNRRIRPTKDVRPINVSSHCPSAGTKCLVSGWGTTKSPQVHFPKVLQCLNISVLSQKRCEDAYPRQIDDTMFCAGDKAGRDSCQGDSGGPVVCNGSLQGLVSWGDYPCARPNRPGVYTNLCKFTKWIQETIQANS

IC50, KLK5-induced IL-8 secretion by A549 cells: 21 nM
Substance: Spink5.Fc (Fc fusion)
